Assay results: the RNAGym collection of RNA variant scans (doi:10.1101/gr.219683.116)

B1: mRNA-splicing (parent)
chain: AGUUGCUGCUGGGAGCUCCAGCACAGUGAAAUGGACAGAAGGGCAGAGCAA

Variants of: B1
Experiment: exon inclusion enrichment index; higher = more inclusion; WT1 exon 5 minigene, HEK293

Variant | exon inclusion enrichment index
C6A U7A C9A U10A A14C | 0.774
C6A U7A C9A U10A A14U | 0.301
G2A U3G G5C C6A U7C G8A U10A | 0.0866
C6A U7C C9A U10C C19U | 0.759
G2A U3C C6A U7A C9A U10A | 0.648
C6A U7A C9A U10A C22G A23U | 0.0793
G5C C6A U7C G8A U10A G13C | 0.0242
G2A U3C G5C C6G U7C U10C | 3.58
C6A U7A C9A U10A A20C G21C | 0.209
G5C C6A U7C G8A U10A A35C | 0.0232
G5A U7C G8A U10C A47C G48U | 2.34
G5C C6G U7C U10C C24A A25U | 2.85
G5A C6U U7G G8C C9A | 0.407
G5U G8U C9U G38A | 0.0418
A20G G21C | 2.64
G5A C6U U7A G8U C9A A23G C24G | 0.259
C6A G8A C9A U10C | 0.666
G5C C6A U7C G8A U10A G38A | 0.0452
G8C C9G | 0.884
G5C C6G U7G U10C | 1.51
G5U G8U C9U A45G G46A | 0.672
G5U G8U C9U G38C A39U | 0.00329
G5U G8U C9U G38C A39C | 0.152
G15C C16A | 0.0306

Variant | exon inclusion enrichment index
C6A U7C C9A U10C G12A G13A | 2.17
G5U G8U C9U A23U C24G | 0.223
G5A U7C G8A U10C G11C G12C | 0.415
G5C C6U G8C C9U U10C C19U A20U | 0.25
G5C C6U G8C C9U U10C C19U A20C | 0.957
U3C U4A G5U G8U C9U | 0.356
G5A C6U U7A G8U C9A G28U A29G | 0.0696
G5U G8U C9U C36U A37G | 0.114
G5C C6A U7C G8A U10A A23U | 0.0425
G5C C6G U7C U10C G42C G43A | 4
G5U G8C | 1.34
G5U U7C C9A U10C | 2.66
G5C C6G U7C U10C C18U | 3.14
G5A C6U U7A G8U C9A A39U A40C | 0.142
G5A U7C G8A U10C A47G | 0.395
G5U C6U U7C U10C | 3.03
C6A U7A C9A U10A A39G A40U | 0.0506
G5C C6A U7C G8A U10A G15U | 0.098
U4G G5C U7C G8A U10C | 1.75
C18A | 1.5
C18G | 0.287
C6U C9A U10C | 1.46
G5C C6U G8C C9U U10C U27C G28A | 1.89
C6A U7C C9A U10C G38U A39C | 2.79

Variant | exon inclusion enrichment index
G5C C6G U7C U10C G28C | 2.68
G5C C6G U7C U10C G28A | 1.63
G5C C6U G8C C9U U10C A25C G26A | 3.25
G5C C6U G8C C9U U10C A25C G26C | 2.25
C6A U7C C9A U10C G15C C16U | 3.32
A25U G26A | 0.136
G5C C6A U7C G8A U10A U32C G33A | 0.033
G5C C6U G8C C9U U10C G21U C22U | 0.512
G5U G8U C9U G42C G43U | 0.515
C6A U7C C9A U10C A23U C24G | 3.98
G5C C6G U7C U10C A20C G21U | 2.17
G5A C6U U7A G8U C9A G41C G42U | 0.445
C6A U7C C9A U10C G11C | 3.61
G5C C6A U7C G8A U10A G28C A29C | 0.0814
C6A U7C C9A U10C U17G C18U | 1.64
G5C C6G U7C U10C A29C | 3.11
C6A U7C C9A U10C A31U U32G | 2.15
U17A C18G | 0.00663
G5U C6G U7G C9A | 0.0617
G5U G8U C9U G43A C44A | 0.667
G5U G8U C9U G43A C44G | 0.749
G5A C6U U7A G8U C9A A25G G26U | 0.231
C6A U7A C9A U10A G34A A35G | 0.208
G5C C6G U7C U10C A31G U32G | 2.67

Variant | exon inclusion enrichment index
G5A C6U U7A G8U C9A G33C G34C | 0.043
G5A U7C G8A U10C C22U A23U | 1.53
G5C C6A U7C G8A U10A U32A G33U | 0.0392
G5A U7C G8A U10C G26C | 2.46
G5A C6G U7G C9A A25U | 0.00086
G5C C6G U7C U10C G33A G34C | 0.988
G5A C6G U7G C9A A25C G26A | 0.00349
G5U G8U C9U C44U A45C | 0.215
G5A C6U U7A G8U C9A G41A G42U | 0.0659
C6A U7C C9A U10C G28U | 1.34
G5A C6G U7G C9A G15U C16A | 0.00611
G5A U7C G8A U10C G28C A29C | 1.72
G5A U7C G8A U10C G41A G42C | 2.53
G5A C6U U7A G8U C9A G15C C16U | 0.0353
G5C C6A U7C G8A U10A C24U A25C | 0.98
G5A C6U U7A G8U C9A A25U G26U | 0.0803
C6A U7C C9A U10C G13C A14C | 2.43
G5A C6U U7A G8U C9A G33U G34U | 0.0031
G2C U3C G5U G8U C9U | 0.29
C6A U7C C9A U10C A35G C36A | 2.29
C6A U7C C9A U10C A39U | 0.343
G5C C6U G8C C9U U10C C16G U17G | 0.254
G5A U7C G8A U10C A37G | 3.3
A25C G26C | 0.435

Variant | exon inclusion enrichment index
G5A C6G U7G C9A A37C G38C | 0.00112
C24U A25U | 0.208
G5U G8U C9U C19A A20G | 0.00554
C6A U7A G8A C9A U10C | 1.36
G5A U7C G8U C9G U10C | 1.91
G5A C6A U7G C9A | 0.107
G5U G8U C9U A14C G15A | 0.0209
G5C C6G U7C U10C G41U G42U | 2.79
U3A U4G C6A U7A C9A U10A | 0.245
G5A U7C G8A U10C G28C | 1.68
G5A U7C G8A U10C A40C G41A | 0.979
C6A U7C C9A U10C G12U G13U | 0.542
C6A U7A C9A U10A U32G G33A | 0.11
G5C C6G U7C U10C C18U C19G | 2.78
G5A C6G U7C G8U C9A | 0.0245
G5C C6U G8C C9U U10C G42A G43A | 4.1
G5C C6A U7C G8A U10A A45G G46C | 0.26
G5C C6G U7C U10C C24G A25C | 4.6
C19U A20C | 1.96
C6A U7C C9A U10C A30C A31C | 4.36
G5A C6G U7G C9A G28C | 0.00255
G5A U7C G8A U10C G42C | 3.71
G5C C6A U7C G8A U10A C44A | 0.477
G5C C6A U7C G8A U10A C44G | 0.198

Variant | exon inclusion enrichment index
G5A U7C G8A U10C C18A C19G | 0.297
C6A U7A C9A U10G G11U | 1.14
A40G G41C | 0.927
G5C C6G U7C U10C G38U A39G | 2.02
G5C C6U G8C C9U U10C A47C G48A | 1.12
G5A C6G U7G C9A U32G G33A | 0.00113
G5A C6G U7G C9A U32G G33U | 0.000945
C6A U7A C9A U10A G13A A14C | 2.82
G5U G8U C9U A20U G21C | 0.1
G5C C6A U7C G8A U10A A35C C36G | 0.107
C6A U7A C9A U10A G15U | 0.786
G5A C6U U7A G8U C9A G21C C22U | 0.0665
G5A U7C G8A U10C A47G G48U | 0.325
G5C C6A U7C G8A U10A A47C | 0.232
G5C C6A U7C G8A U10A A31C U32C | 0.385
A20U | 2.62
C6A U7C C9A U10C G43C C44U | 2.49
U4A G5C U7C G8A U10C | 2.34
C16U U17A | 0.0567
G5C C6A U7A G8U C9A | 0.415
U3C U4A G5A C6U U7A G8U C9A | 0.17
G5A C6U U7A G8U C9A C24U | 0.00831
U27C G28C | 0.105
G5U G8U C9U G28A | 0.0119

Variant | exon inclusion enrichment index
G5A C6G U7G C9A A45G G46A | 0.0107
G5A C6G U7G C9A A45G G46C | 0.00144
G5U G8U C9U G15A C16G | 0.043
G2U U3G G5A C6G U7G C9A | 0.0222
G5A C6U U7A G8U C9A G26U U27A | 0.0488
G5A C6G U7G C9A A35C C36G | 0.00118
G5A C6U U7A G8U C9A | 0.074
G5A C6U U7A G8A U10C | 0.863
G5A C6U U7A G8U C9A A45G | 0.212
G5C C6A U7C C9U U10A | 0.0237
U3C G5U G8U C9U | 0.0225
G5U G8U C9U A25G | 0.618
G5A C6U U7A G8U C9A A14G | 0.0395
G5C C6A U7C G8A U10A G41A G42C | 0.264
G5A C6G U7G C9A C16U U17A | 0.00236
U32C G33C | 0.303
G5A C6G U7G C9A U10A | 0.00068
G5C C6U G8C C9U U10C A45G G46C | 2.3
G5C C6U G8C C9U U10C A45G G46A | 3.98
G5C C6G U7C U10C G38C A39U | 0.532
G5C C6A U7C G8A U10A G26A U27A | 0.131
G5A U7C G8A U10C G48C | 2.4
G5C C6G U7C U10C A25G | 5.05
